Data taken from patent publication US20250197451A1 (CAPITAL MEDICAL UNIVERSITY SCHOOL OF STOMATOLOGY, published 2025).

Molecular target: T1, biotin-labelled EZH2 protein (UniProt Q15910 1-746, limits assumed, biotin label (EZ-link NHS-PEO4-Biotinylation kit))
T1 construct: Probe in solution (1 ug/ml) on the KDM2B peptide microarray; also called NHS-PEO4-Biotinylation-labelled EZH2 protein; recombinant protein
Assay: KDM2B peptide array probed with biotin-EZH2 1 ug/ml, SA-HRP/ECL;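 also: Background-corrected optical density of each spot on the membrane, given as percent of the brightest spot (100%), color developed for 5 minutes; 100% is the highest background-corrected spot optical density on the membrane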

T1 sequence (Q15910 whole entry): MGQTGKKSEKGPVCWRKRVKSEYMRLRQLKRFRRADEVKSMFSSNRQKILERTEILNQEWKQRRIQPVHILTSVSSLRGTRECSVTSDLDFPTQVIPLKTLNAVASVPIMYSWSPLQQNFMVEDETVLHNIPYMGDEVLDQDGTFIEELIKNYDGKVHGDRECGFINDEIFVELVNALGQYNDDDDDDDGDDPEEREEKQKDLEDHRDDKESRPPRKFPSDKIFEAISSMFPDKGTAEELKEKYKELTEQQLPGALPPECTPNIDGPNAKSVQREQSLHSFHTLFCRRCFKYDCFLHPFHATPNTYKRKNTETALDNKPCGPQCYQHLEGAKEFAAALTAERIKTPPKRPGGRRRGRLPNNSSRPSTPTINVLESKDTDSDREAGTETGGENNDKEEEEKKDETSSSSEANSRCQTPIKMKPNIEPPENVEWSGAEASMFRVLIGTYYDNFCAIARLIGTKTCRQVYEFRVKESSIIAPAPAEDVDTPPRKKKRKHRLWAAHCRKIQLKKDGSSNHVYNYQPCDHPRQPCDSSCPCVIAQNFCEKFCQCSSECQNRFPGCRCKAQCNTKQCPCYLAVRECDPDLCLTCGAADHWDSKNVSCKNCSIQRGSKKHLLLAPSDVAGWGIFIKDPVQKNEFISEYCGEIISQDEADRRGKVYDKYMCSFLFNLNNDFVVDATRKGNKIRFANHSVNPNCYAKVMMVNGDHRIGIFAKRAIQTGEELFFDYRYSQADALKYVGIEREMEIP

TKLEHLVKRPTVVDL [peptide 37]
Intensity (%): 0.73%

EWVLSGKQSDIFLGD [peptide 56]
Intensity (%): 24.6%

RYCKQVTKEGCEQFI [peptide 261]
Intensity (%): 5.21%

EDHPPRKRHAAEKQK [peptide 3]
Intensity (%): 0%

QTEATNAIAEMKYPK [peptide 43]
Intensity (%): 0%

RTLDVQWVEGLKDAQ [peptide 236]
Intensity (%): 2.1%

FWLIPPTLHNLALYE [peptide 53]
Intensity (%): 0.7%

VELRLAGLDITDASL [peptide 244]
Intensity (%): 0.9%

SVQFGQVEEKLLQKL [peptide 265]
Intensity (%): 2.09%

RVERCQRIELKQGYT [peptide 59]
Intensity (%): 11.4%

CHIDLRYCKQVTKEG [peptide 260]
Intensity (%): 22.3%

SCPLLRTLDVQWVEG [peptide 235]
Intensity (%): 2.02%

FHIDFGGTSVWYHVF [peptide 49]
Intensity (%): 0%

LEFSHTKLEHLVKRP [peptide 36]
Intensity (%): 0.89%

HMPLLSKLHLSYCNH [peptide 248]
Intensity (%): 1.15%

AEKQKKKTVIYTKCF [peptide 5]
Intensity (%): 97%

SPPTDNRPGQMDNRS [peptide 240]
Intensity (%): 0%

WYHVFRGGKIFWLIP [peptide 51]
Intensity (%): 0%

NMWPQHLKEKQTEAT [peptide 41]
Intensity (%): 0%

PDFTVRDVKLLVGSR [peptide 25]
Intensity (%): 0.02%

WIAVSALCSSSCPLL [peptide 233]
Intensity (%): 34.8%

QKGTEMSMSQFVRYY [peptide 30]
Intensity (%): 1.2%

LMSVKGCFTDFHIDF [peptide 47]
Intensity (%): 100%

GGNILHSFNVPMQLR [peptide 66]
Intensity (%): 0.54%

QWVEGLKDAQMRDLL [peptide 237]
Intensity (%): 1.18%

FFIPSGWIHAVYTPV [peptide 62]
Intensity (%): 2.54%

MSMSQFVRYYETPEA [peptide 31]
Intensity (%): 19.2%

QRIELKQGYTFFIPS [peptide 60]
Intensity (%): 0.3%

RGGKIFWLIPPTLHN [peptide 52]
Intensity (%): 0.55%

VKKYCLMSVKGCFTD [peptide 46]
Intensity (%): 100%

VDWVDNMWPQHLKEK [peptide 40]
Intensity (%): 0%

IKMPDPDFTVRDVKL [peptide 24]
Intensity (%): 0%

SKLHLSYCNHVTDQS [peptide 249]
Intensity (%): 0%

KLRNIVELRLAGLDI [peptide 243]
Intensity (%): 0.92%

RDVKLLVGSRRLVDV [peptide 26]
Intensity (%): 0.36%

MDNRSKLRNIVELRL [peptide 242]
Intensity (%): 0.64%

VTDQSINLLTAVGTT [peptide 251]
Intensity (%): 0%

LKDAQMRDLLSPPTD [peptide 238]
Intensity (%): 0.62%

KKTVIYTKCFEFESA [peptide 6]
Intensity (%): 27.5%

HLKEKQTEATNAIAE [peptide 42]
Intensity (%): 2.03%

LRDLVLSGCSWIAVS [peptide 231]
Intensity (%): 100%

MRDLLSPPTDNRPGQ [peptide 239]
Intensity (%): 1%

RLIIRHMPLLSKLHL [peptide 247]
Intensity (%): 3.66%

SYCNHVTDQSINLLT [peptide 250]
Intensity (%): 0%

MDVNTQKGTEMSMSQ [peptide 29]
Intensity (%): 5.32%

IFLGDRVERCQRIEL [peptide 58]
Intensity (%): 15.6%

LSGCSWIAVSALCSS [peptide 232]
Intensity (%): 95.4%

LVGSRRLVDVMDVNT [peptide 27]
Intensity (%): 0%

TVVDLVDWVDNMWPQ [peptide 39]
Intensity (%): 0.27%

KQGYTFFIPSGWIHA [peptide 61]
Intensity (%): 0.85%

INLLTAVGTTTRDSL [peptide 252]
Intensity (%): 0.22%

AEMSVSVQFGQVEEK [peptide 264]
Intensity (%): 2.91%

RCGNICHIDLRYCKQ [peptide 259]
Intensity (%): 1.36%

SDCNKVTDQCLSFFK [peptide 256]
Intensity (%): 5.43%

RLVDVMDVNTQKGTE [peptide 28]
Intensity (%): 0%

GWIHAVYTPVDSLVF [peptide 63]
Intensity (%): 1.74%

LVKRPTVVDLVDWVD [peptide 38]
Intensity (%): 0%

GCFTDFHIDFGGTSV [peptide 48]
Intensity (%): 0%

ALCSSSCPLLRTLDV [peptide 234]
Intensity (%): 3.59%

MKYPKVKKYCLMSVK [peptide 45]
Intensity (%): 7.77%

YNVISLEFSHTKLEH [peptide 35]
Intensity (%): 5.95%

AGLDITDASLRLIIR [peptide 245]
Intensity (%): 0.31%

QRDKLYNVISLEFSH [peptide 34]
Intensity (%): 0%

RKRHAAEKQKKKTVI [peptide 4]
Intensity (%): 0%

LALYEEWVLSGKQSD [peptide 55]
Intensity (%): 0%
